From patent US20170081672 come the findings set out here.

For series [1], the system named is ALS2_T1 TALE-nuclease left subunit. The series can be described thus: cell_activity. The following applies: yeast beta-galactosidase reporter, 37 C, as pair with right subunit; SD or SE 0.02; 0.86 (0.02) at 30 C; NHEJ in N. benthamiana protoplasts 70.68% (DNA, no UTR).
The test system of series [2] is ALS2_T1 TALE-nuclease right subunit. Nature of the series: cell_activity. As to conditions: yeast beta-galactosidase reporter, 37 C, as pair with left subunit; SD or SE 0.02; 0.86 (0.02) at 30 C; NHEJ in N. benthamiana protoplasts 70.68% (DNA, no …).

In series [1], “TAGCTTGTTCCACATTT (double strand) [ALS2_T1 left target half-site]” gave an activity (relative to I-SceI (max 1.0)) of 0.97.

With “TGTCATGCTGGGTCAG (double strand) [ALS2_T1 right target half-site]”, in series [2], the activity (relative to I-SceI (max 1.0)) came to 0.97.
